# Test: soluble on expression in E. coli; label from the status in PepcDB or PDB records
row,Sequence,soluble on expression in E. coli
1,MSLNNTKQPVVILVGPTAVGKTNLSIQLAKSLNAEIISGDSMQIYKGMDIGTAKITEQEMEGVPHHLIDILDPQDSFSTADYQSLVRNKISEIANRGKLPMIDGGTGLYIQSELYDYTFTEEANDPVFRESMQMAAEREGADFLHAKLAAADPEAAAAIHPNNTRRVIRALEILHTSGKTMSQHLKEQKRELLYNAVLIGLTMDRDTLYERINQRVDLMMQSGLLPEVKRLYDKNVRDCQSIQAIGYKELYAYFDGFVTLSDAVEQLKQNSRRYAKRQLTWFRNKMQVTWFDMTPPVDMELKKKEIFTHIAGKLELEGHHHHHH,soluble
2,MSLNNYPFASMRDCFDMSAYFVVGPQDCKGRPVTDVVDDALRGGATFIQLRAKNADAKDITEMARDIAQVIKNSGKSDSVAFVIDDRVDVVWQARDKGIKVDGVHIGQTDMEPQEARALLGEDAIVGLSAETESLVKLINELPSGCIDYIGAGPLHVSTTKPEASVGGNDGSGHTLDEEQINAICAASEFPVVVGGGVHADDMEMLARSKAAGWFVVSAIAGADDPEAATREMVTRWKAVRGDAEGHHHHHH,soluble
3,MSLNPKAKFAVIDDLETSRLHISHILQEDGFTVDLFDSATQFLLMKDEILDYAGLIIDIHMPGYNGYELAETIHAMFGTSAPPFIFISASPESIRHDRFNTEHMWQGFAKPMDKNRFIDSIRVLSDKSSLKTEAFEPASVLLVEDEPINAEVVKTMLERNGHTVEVATTGAAALHLATTVPFNLILMDINLPDMSGIETTRCIKAQGVDTEIVALTGNAYEEDKLKTKEAGMSYHLVKPVMYHELNNVIKLALRVAHEGHHHHHH,soluble
4,MSLNPVNGAILSIEISHPNGFEIDENISAYHDAEYYMDRIFDSGNYDSLIVLTSIKILSQHWEIDNDMVVTSQSIRQLAIDTINSKAESGTIKNYWFKLQSLCEEFKNLSQETLSLSVFDNQVLTLNVNGHGIFRKSAFFESFANQKLNSADGKLMLIFNKFETFISRKSYHKLHEELLQLRKISANEITNLFTKHIEGKISTNEIQTILKDLEQIPGIVEIVKSLIGSSGFELIVDANSISSKELGAFHKISTVMIFKNIMETHKTLLLDLVVLFLTCETNDQIVEFVNQIRATLVQYDVMEVVFTTCLNKGEVETKNMGQVQNSIFWSSVVATHSQLKRLIESLQLNDGYEYFYNNVLPDDYLVDVVIELINNKEYFFLQKKFLTKLNQENKVEKLLVGLIYLFNNDVKSFYKIFNDYSNFQNFTENKIKNLNQDVNLQKFIEALLSNPSKSQYFHGLSKLVQSQIKTNDNKSQQEEHCFIEIASDFETLAIENEGHHHHHH,soluble
5,MSLNQSYFNLLGNITWLWMNSSLHKEWSCELLARNVIPAIENEQYMLLIDNGIPIAYCSWADLNLETEVKYIKDINSLTPEEWQSGDRRWIIDWVAPFGHSQLLYKKMCQKYPDMIVRSIRFYPKQKELGKIAYFKGGKLDKKTAKKRFDTYQEELATALKNEFNFIKKEGHHHHHH,soluble
6,MSLNRRHTIKHNFPIVGHFRYLLEKIGPELRQYIVANNREELPFNRRQRSWIYASSKQENNYQGFGTDQDQNSPGFVFIKPSMFSYAVKEGHPNKKKPDFVPCAKIMGAYNKRRRPYRPYSIINISGMSYGSLSARAVESLNKGALKAGCYQNTGEGSLAPHHKHGADIMFHFGTGYFGVRDEHGNFSMSKLKALVEANPCIRAIDLKLSQGAKPGKGGVLPASKITQEIADIRGLPMGKDVISPAYHSVFSNVPEMMDFIENIAQETGLPVGFKSAVGKMEMWVELADRMLEKGYGPDFITIDGGEGGTGAAPPAFADHVSLPFVYAFSNVYKIFAERGLTDRIVFAASGKLGFPESSLMAFALGADVIHVAREAMMSIGCIQAQVCHNNTCPSGVATQNKWLQSGIDVPLKADRLYNYIKNLRKEVLEITHACGYEHPSQMTMTDIDISMGDNNLTMPLVDAYKYNKIPVNFESMQKLADEGHHHHHH,not soluble
7,MSLNSEWGKFALWLKHQRISPAELLVPQPQEKLTGWSDPRISQERILGLLARGHSLALAVDKWQRAGLWILTRGDADYPVRLKNRLRTDAPPVLFGCGNKALLQAEGMAIVGSRDAPTDDLRYTQQLAAKLAQQGICVISGGARGIDECAMASALEAGGTAVGVLADSLLKTSTLVKWREGLIAGNLVLISPFYPEVRFTVGNAMARNKYIYCLAESAMVVRAGMTGGTITGAMEALKHQWLPVQVKPNQDMQSANSRLVENGASWSAEQAENVTIRLPDVPGLMYDRAEGHHHHHH,soluble
8,MSLNTEIEMNELLEKAKKIKCLICDVDGVLSDGLLHIDNHGNELKSFHVQDGMGLKLLMAAGIQVAIITTAQNAVVDHRMEQLGITHYYKGQVDKRSAYQHLKKTLGLNDDEFAYIGDDLPDLPLIQQVGLGVAVSNAVPQVLEFADWRTERTGGRGAVRELCDLILNAQNKAELAITGYLKQEGHHHHHH,soluble
9,MSLNTTFTKEDGTEVVIPFNGSQNGHPENEEPEVEEAAEPSSSVETLCGATRGDIIVMKHTTKALTELIERLLHSDEFEVRRCSNGQIISQGRCNGTTPGNGIGGGGASSEELEKALKDRDAARAEADKLHANYATLFASFNTVREAANDIRGEYEDARDKLKLAAAEVDEWQAKFLAVKDNANSELERASVEYDDLLRSHDENTKGLRLRVKRQEIELSSKNDEIKVLTNRVSELSQICDQLLNDVDVSDGMSVISTDA,not soluble
10,MSLNVQGNLFRPLTLPNGLSLENRFVLSPMVTNSSTSEGFVTDDDIAYAVRRAKSAPLQITGAAYITEYGQLFEYGFSVSKDEDIPGLTKLAKAMKSKGAKAVLQLTHAGRFSSHTLARHGYVYGPSPMQLQSPYPHQVKELTHKDILRIIDEYVQATRRAIQAGFDGVEISSAQRLLIQTFFSTFSNQRKDEYGPQTLTNRCRLGLEVFKAVQKVIREEAESDFILGFRATPEETRGSQIGYSIEEFMEFLEKILAIAQVDYLAIASWGHDVFRNTIRSEGVYKGQLVNQVIFEHFGDRVPIMATGGINSASKVFEALQHAHMIGASTPLVVDPEFLQKIKAKCSDQINLRIKVSDLEGLAIPKEGHHHHHH,not soluble
11,MSLNVVGYVRLSRDEDKENYSSIITQKNIIEEYSKNKNWTVNRIYVDDNCSGYTFERPEFLKMMYEIKERKIDVIVAKDLSRIGRNNGKVLVFIDKLKEKGIRLILVEEATGGLDLLEDNYDILGIKTWYNEMYVKDISRKIRASMHLKQKKGKEGHHHHHH,soluble
12,MSLNVVNSIFSKLSIAPMIDWTNSPFRTLMRLLAPNALLYTEMQTTGAVQNNPDRALYFNSVEHPLAIQLGGADKSALVKCAIIAEQKGFNEINLNLGCPSDKVQAGRFGACLMKEPEHVADCIRAIKQVVGIPVTAKTRIGIDNQDSYEFFRSFSLHLVEAGCDKLIIHARKAWLNGLNPKQNRTIPPVNYDYVYELKKEIPHIFITINGNILTVEEINNHLKHVDGVMLGRLACDNPYQIAEIHQALYPEFIKIKRSQLLMNYLDYWFDQSRANLSLSILVKPLFNLAFGLPGAKHWKKKLMNIIQEKNTSGFSELIQYLLNLEAINQVEEGHHHHHH,soluble
13,MSLNYTELEENIKKNNIENVYIMCGFNEKLMKESINKILKKSISQDFESLNYSVFDGNEVEFEDILNACETVPFMSEKRMVVVYRAGFLNDNSSGSNKNSDKLIKDIEKYVPNVPKHCILVMYYVFDNTREKPSYRVKKFDKKVCVVEFSKLRGMQFQKKVKDVFAEKGKQIGKTELNYFCSRVENNMDIVYNEIEKLCCYTLEKEITKESIDNLLQPNETDDIFNLVDYISQSKPEMAITVLNEIMYKGVKANSILYMVERQFKLMLSIKIGIENKQSKEALVKELKLNPYVCDKMINECKRFTMKKILKSLDICLRTEKELKSVSGDPKFKMEVLIINLAIEGHHHHHH,soluble
14,MSLPFPTIPPIAGVEIATGRAGFYKHEREDLLLMRFAEGTSAAGVFTRHGVGSAPVDWCKRQLAATGGADVRALVVNAGCANSFTGKPGADAVRRVATAVGKRFDCRQRDVMMASTGVIGVILDDSKITARLPEVESRLKADAWAEAGRAIMTTDTFPKGAYATAVIDGHEVKIAGIAKGSGMIAPDMATMLAFVATDAAIAPAALQTLVSLYTRTTFNCVTVDGDRSTNDTLLLFATGQSGAPKIHRAGDKRLADFREKLEGVLLDLALQLVKDGEGATKFVKITVNGAESPASARKIARTIAESPLVKTAFAGEDANWGRIVMAVGRADEPVAREKISVKFGDLYAARDGLISAEYDEAKMSAYVKNQAFEVSVDVGVGRGSATVWTCDLTKQYVAINGDYRSEGHHHHHH,not soluble
15,MSLPPRPYDNRPPTGVRAKPVINLNIEYTSCNDSVAPACSTRPMLIENMINQRNVNINVLEGYDPKSKSVINQHSIYHLYEFESKTRFLDRIPRPRVSRFTELKTRFLCCRYVLCAIDDVMQKQKPMELMAIRLNGDIYIGANKSMDLQTDKKTQEAAFGGLNFAMKVTRESDQKILKKHHSVVKQLRIENTRNSMSMSIFVSSVARAFDQRGNVVELKTVGSKVMGKVQNLSRLKARDWWLRALLSGADRIVYGLRMDNMKVNEIHEAQLTDFTKGHFRFDGAKLFSEIFKIFSTIDKIIGAEGDMCMVKSDGSTPISVTLTTRESLKRSPFW,not soluble
16,MSLPTEMHHNLGAEKRSAVATTIDSFKERSQKVRALSDPNVRFVPFFGSSEWLRFDGAHPAVLAEKYNRSYRPYLLGQGGAASLNQYFGMQQMLPQLENKQVVYVISPQWFSKNGYDPAAFQQYFNGDQLTSFLKHQSGDQASQYAATRLLQQFPNVAMKDLVQKLASKEELSTADNEMIELLARFNERQASFFGQFSVRGYVNYDKHVAKYLKILPDQFSYQAIEDVVKADAEKNTSNNEMGMENYFYNEQIKKDLKKLKDSQKSFTYLKSPEYNDLQLVLTQFSKSKVNPIFIIPPVNKKWMDYAGLREDMYQQTVQKIRYQLESQGFTNIADFSKDGGEPFFMKDTIHLGWLGWLAFDKAVDPFLSNPTPAPTYHLNERFFSKDWATYDGDVKEFQEGHHHHHH,soluble
17,MSLQAAGNAPAKISMLLTDGAIGQITKPFPEGGPSAKEVWERETGIEIDIVGAPAEDIFKKVMQDVTTGGGTFDIYTGPWNSTGDLVSSGGAVNCSDFVAKYQPDWADPERGTPTPEMEKLLYTYAGDYYSFSLDGDFQTWFYLKGLYEDPRVQDAFLSETGVALKTPDTWEEVDRISKFFTGKDFGNGPMYGNGNLMSPFWGLATFYARFASMDFPNYHFFDEDGNPNLNSDLGIQCAEEHVRSFEWCPPDALTFTWAEAYATMWNLQIPHTAIYTNLVKFGDGYNADGTPKSKATGMIGSHLPVGRRFGDQLNRRSVLYYHITAWISSQSQHPEAVYLFLQWLSSTRTYTWMAGNPGGYFDPMQQANFKEPLVASTYHPYAMETIPQTIARSVPSINFAGQTALDNALDEEIQAAITGQKSAREAMDAAQSKWERIIKRQEGHHHHHH,not soluble
18,MSLQADFNRPVLAVDTGTSRLSLALRADGETRLFHQEVGSRQSELILPEIRTLFRDAGITAADLGAVVYAQGPGAFTGLRIGIGVAQGLATPFDTPLIGVPSLDAAASLPPPQSCILAATDARMGEVFYAWFDTLNCHRLSDYQVGRAADIRLPEGCAFSDGIGSAFALEEAPPFSGRPDMPTAADFLALAAKGGYPAVHAAHAGLLYVRNKIALTAKEQAERRAEGHHHHHH,soluble
19,MSLQGGIRFSDGIAAVADNEVITRRRLAEAVAEAKANLPKDAQISESELSRQVLMQLVNQSLIVQAGKRRNIQASEAEIDAVVAKNPALKNLSPAQRRDFADNIIAEKVRQQAVMQNSRVSEAEIDAFLEQAQKQGITLPEGAPLRQYRAQHILIKADSENAAVGAESTIRKIYGEARSGTDFSSLARQYSQDASAGNGGDLGWFADGVMVPAFEEAVHALKPGQVGAPVRTQFGWHIIKLNEVRDAGTPQERIRNSVRQYIFQQKAEQATVNLLRDLHSGAYVDIREGHHHHHH,soluble

# Reference: the DeepSol protein solubility set
